Laboratory results published in patent US20250213694A1 (SHANGHAI SIMNOVA BIOTECHNOLOGY, published 2025).

Target: T1, human GPRC5D on GPRC5D-overexpressing cells (human, UniProt Q9NZD1 1-345)
T1 construct: whole, on cells; also called also tested on NCI-H929 cells
Assay: cell-based ELISA and FACS on human GPRC5D-overexpressing cells and NCI-H929 cells; chimeric human IgG1 format

T1 sequence (Q9NZD1 whole entry): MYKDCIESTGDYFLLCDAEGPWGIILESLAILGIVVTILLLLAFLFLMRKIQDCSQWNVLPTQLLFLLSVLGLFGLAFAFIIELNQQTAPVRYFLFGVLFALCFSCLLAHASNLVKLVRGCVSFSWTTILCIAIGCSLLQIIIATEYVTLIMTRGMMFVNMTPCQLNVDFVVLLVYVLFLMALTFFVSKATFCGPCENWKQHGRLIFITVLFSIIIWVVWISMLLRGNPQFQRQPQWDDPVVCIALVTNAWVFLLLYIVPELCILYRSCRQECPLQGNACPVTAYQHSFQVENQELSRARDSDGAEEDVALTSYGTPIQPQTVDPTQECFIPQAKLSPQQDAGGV

B1: GPRC5D-mab03 (antibody, V domains shown)
VH: QAYLQQSGAELVRPGASVKMSCKASGYTFTSYNMNWVKQTPRQGLEWIGAIYPGNGDTSYNQKFKGKATLTVDKSSSTAYMQLSSLTSEDSAVYFCARVRLRYAMDYWGQGTSVTVSS
VL: DIVMTQSQKFMSTTVGDRVTITCKASQNVGTAVAWYQQKPGQSPKLLISSASNRYTGVPERFTGSGSGTDFTLTIRNMQSEDLADYFCQQYSSYPWTFGGGTELEIK
notes: Murine variable regions; Screened as a chimeric antibody containing the constant region of human IgG1
binding result: binds

B2: GPRC5D-mab06 (antibody, V domains shown)
VH: QVQLKQSGPGLVQPSQSLSITCTVSGFSLTSYGVNWIRQSPGKGLEWLGVIWSGGNTDYNAAFRSRLSISKDNSKSQVFFKMNSLQADDTAIYYCARGQLGRPYWYFDVWGTGTSVTVSS
VL: DIVMTQSHKFMSTSVGDRVSITCKASQDVRTAVAWYQQKPGQSPKLLIYWASTRHTGVPDRFTGSRSGTDYTLTISSVQAEDLALYYCQQHYSTPLTFGAGTKLELK
notes: as for B1
binding result: binds
